According to US20100297703A1:

Columns and labels:
Assay in all cases: cell-based or functional assay
[1] = target: 6His-C-CwlO protein (Bacillus subtilis) (UniProt P40767)
[2] = target: 6His-C-YddH protein (Bacillus subtilis) (UniProt P96645)
[3] = target: h-ACwlS protein (Bacillus subtilis) (UniProt O31852)
[4] = target: His-tag-fused C-terminal active domain of CwlE (His-CwlECTD) (Bacillus subtilis) (UniProt O07532)
His-tag-fused C-terminal active domain of CwlE (His-CwlECTD) (Bacillus subtilis), sequence (O07532 371-488 limits assumed): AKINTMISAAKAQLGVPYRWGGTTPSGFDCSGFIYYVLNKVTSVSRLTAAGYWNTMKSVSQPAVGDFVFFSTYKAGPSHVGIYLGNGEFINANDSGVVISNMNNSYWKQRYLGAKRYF

6His-C-YddH protein (Bacillus subtilis), sequence (P96645 206-329): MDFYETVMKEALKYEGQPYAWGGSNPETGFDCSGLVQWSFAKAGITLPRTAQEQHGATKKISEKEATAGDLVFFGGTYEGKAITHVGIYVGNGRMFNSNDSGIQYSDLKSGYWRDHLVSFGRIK
6His-C-CwlO protein (Bacillus subtilis), sequence (P40767 343-473): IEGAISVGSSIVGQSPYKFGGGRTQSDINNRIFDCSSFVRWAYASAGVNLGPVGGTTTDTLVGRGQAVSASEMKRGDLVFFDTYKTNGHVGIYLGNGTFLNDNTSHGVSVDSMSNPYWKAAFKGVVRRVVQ

cell wall lysing activity (decrease in turbidity, OD540), enzyme:His-YoeB 1:2 by mole (% of activity inhibited) [1]: 100
cell wall lysing activity (decrease in turbidity, OD540), enzyme:His-YoeB 1:2 by mole (% of activity inhibited) [2]: 100
cell wall lysing activity (decrease in turbidity, OD540), enzyme:His-YoeB 1:2 by mole (% of activity inhibited) [3]: 100
cell wall lysing activity (decrease in turbidity, OD540), His-CwlECTD:His-YoeB 1:2 by mole (% of activity inhibited) [4]: 100
Substance: His-YoeB (from UniProt O34841 24-181)
